In patent US20170355757A1 (Regeneron, published 2017):

What was measured:
African green monkey C5 [1] = target: T1, African green monkey C5 (African green monkey); test: cell-based or functional assay
monkey C5-mmh [2] = target: T2, monkey C5-mmh (monkey, UniProt P01031 19-1676 (human entry), limits assumed); test: SPR (Biacore), mAb captured, dissociation of monkey C5 at pH7.4 vs pH6.0, 25°C
T2 construct: recombinant, with C-terminal myc-myc-hexahistidine tag
T2 chain: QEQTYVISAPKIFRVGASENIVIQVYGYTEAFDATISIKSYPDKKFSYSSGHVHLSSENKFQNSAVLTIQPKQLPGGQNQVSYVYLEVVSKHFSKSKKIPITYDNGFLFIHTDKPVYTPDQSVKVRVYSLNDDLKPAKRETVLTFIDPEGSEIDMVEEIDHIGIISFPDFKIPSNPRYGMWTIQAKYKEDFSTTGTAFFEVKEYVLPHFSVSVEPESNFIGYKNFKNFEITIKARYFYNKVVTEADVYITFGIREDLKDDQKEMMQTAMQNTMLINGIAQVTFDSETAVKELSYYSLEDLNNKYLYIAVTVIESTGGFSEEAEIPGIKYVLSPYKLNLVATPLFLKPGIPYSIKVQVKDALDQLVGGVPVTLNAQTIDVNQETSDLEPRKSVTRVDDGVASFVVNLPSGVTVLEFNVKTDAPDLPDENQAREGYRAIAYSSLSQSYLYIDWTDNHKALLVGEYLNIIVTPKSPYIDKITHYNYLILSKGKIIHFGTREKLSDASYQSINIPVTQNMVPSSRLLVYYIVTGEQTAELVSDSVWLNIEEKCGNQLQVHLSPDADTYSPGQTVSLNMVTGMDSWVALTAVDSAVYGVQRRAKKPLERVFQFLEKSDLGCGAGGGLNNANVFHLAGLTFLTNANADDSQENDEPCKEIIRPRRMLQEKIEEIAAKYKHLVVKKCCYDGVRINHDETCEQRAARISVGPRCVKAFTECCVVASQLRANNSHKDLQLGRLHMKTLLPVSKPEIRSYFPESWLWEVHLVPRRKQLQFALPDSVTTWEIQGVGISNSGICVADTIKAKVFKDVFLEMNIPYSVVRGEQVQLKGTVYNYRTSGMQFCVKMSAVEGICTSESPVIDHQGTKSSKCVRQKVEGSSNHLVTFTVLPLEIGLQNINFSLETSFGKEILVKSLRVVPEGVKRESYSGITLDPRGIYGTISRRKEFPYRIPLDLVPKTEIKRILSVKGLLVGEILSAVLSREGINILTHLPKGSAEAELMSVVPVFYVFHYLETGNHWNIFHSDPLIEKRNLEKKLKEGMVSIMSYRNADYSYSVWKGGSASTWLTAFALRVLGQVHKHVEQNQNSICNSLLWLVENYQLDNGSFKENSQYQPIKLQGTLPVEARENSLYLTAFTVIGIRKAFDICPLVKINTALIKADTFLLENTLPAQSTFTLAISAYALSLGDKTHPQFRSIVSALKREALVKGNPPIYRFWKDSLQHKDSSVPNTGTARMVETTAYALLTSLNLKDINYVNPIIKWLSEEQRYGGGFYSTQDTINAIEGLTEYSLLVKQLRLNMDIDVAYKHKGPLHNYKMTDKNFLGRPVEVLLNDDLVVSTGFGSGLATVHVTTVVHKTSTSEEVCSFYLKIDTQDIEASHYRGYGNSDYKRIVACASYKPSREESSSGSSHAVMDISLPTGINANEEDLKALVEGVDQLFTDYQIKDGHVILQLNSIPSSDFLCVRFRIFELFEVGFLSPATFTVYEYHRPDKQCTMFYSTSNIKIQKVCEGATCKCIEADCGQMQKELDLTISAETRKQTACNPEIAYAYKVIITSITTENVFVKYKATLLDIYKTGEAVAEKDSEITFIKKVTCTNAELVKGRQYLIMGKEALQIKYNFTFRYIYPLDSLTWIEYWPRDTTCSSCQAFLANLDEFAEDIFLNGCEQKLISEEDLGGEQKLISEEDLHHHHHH

human C5 R885C-mmh = human C5 R885C-mmh (human, UniProt P01031 19-1676); test: cell-based or functional assay
human C5 R885H-mmh = human C5 R885H-mmh (human, UniProt P01031 19-1676); test: cell-based or functional assay
human C5 [3] = target: T3, human C5 (human, UniProt P01031 19-1676); test: cell-based or functional assay
African green monkey C5 [4] = target: T1, African green monkey C5; test: cell-based or functional assay; remark: listed apart in the source
human C5 [5] = target: T3, human C5; test: SPR (Biacore), mAb captured, dissociation of human C5 at pH7.4 vs pH6.0, 37°C
How it was run: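 Anti-C5 mAbs (human IgG4 Fc) captured on an amine-coupled mouse anti-human Fc surface; recombinant C5 dissociation followed by Biacore T200 in PBS-T (0.01M phosphate, 0.15M NaCl, 0.05% Tween-20) at pH7.4 or pH6.0. Dissociative half-life (t½) calculated from kd.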

monkey C5-mmh [6] = target: T2, monkey C5-mmh; test: SPR (Biacore), mAb captured, dissociation of monkey C5 at pH7.4 vs pH6.0, 37°C
Cynomolgus monkey C5 = Cynomolgus monkey C5 (cynomolgus monkey, UniProt A0A2K5U1T1 19-1676); test: cell-based or functional assay
human C5 [7] = target: T3, human C5; test: cell-based or functional assay; remark: listed apart in the source

| Binder | AGM AP % Max Inhibition, hemolysis assay, 5% serum (African green monkey C5 [1]) [%] | AGM CP % Max Inhibition, hemolysis assay, 5% serum (African green monkey C5 [1]) [%] | AGM Serum AP IC50, hemolysis assay, 5% serum (African green monkey C5 [1]) [nM] | AGM Serum CP IC50, hemolysis assay, 5% serum (African green monkey C5 [1]) [nM] | t½ Ratio pH7.4/pH6.0 (monkey C5-mmh [2]) | IC50, inhibition of CDC of Daudi cells, C5 depleted human serum and 6.6 nM C5 Variant R885C (human C5 R885C-mmh) [nM] | IC50, inhibition of CDC of Daudi cells, C5 depleted human serum and 6.6 nM C5 Variant R885H (human C5 R885H-mmh) [nM] | IC50, inhibition of CDC of Daudi cells, 1.66% human serum (human C5 [3]) [nM] | IC50, inhibition of CDC of Daudi cells, 1.66% African Green monkey serum (African green monkey C5 [4]) [nM] | t½ Ratio pH7.4/pH6.0 (human C5 [5]) | t½ Ratio pH7.4/pH6.0 (monkey C5-mmh [6]) | Cyno AP % Max Inhibition, hemolysis assay, 5% serum (Cynomolgus monkey C5) [%] | Cyno CP % Max Inhibition, hemolysis assay, 5% serum (Cynomolgus monkey C5) [%] | Cyno Serum AP IC50, hemolysis assay, 5% serum (Cynomolgus monkey C5) [nM] | Cyno Serum CP IC50, hemolysis assay, 5% serum (Cynomolgus monkey C5) [nM] | Human AP % Max Inhibition, hemolysis assay, NHS (human C5 [7]) [%] | Human AP IC50, hemolysis assay, NHS (human C5 [7]) [nM] | Human CP % Max Inhibition, hemolysis assay, NHS (human C5 [7]) [%] | Human CP IC50, hemolysis assay, NHS (human C5 [7]) [nM] |
| --- | --- | --- | --- | --- | --- | --- | --- | --- | --- | --- | --- | --- | --- | --- | --- | --- | --- | --- | --- |
| H4H12170P (antibody, human IgG4, V domains shown, H4H: human IgG4 Fc with S108P hinge mutation) VH: QVQLVESGGGVVQPGRSLRLSCAASGFTFSGYGMHWVRQAPGKGLEWVALIWLDGSNDYYADSVKGRFTISRDNSKNTLYLQMNRLRAEDTAVYYCARDGPVAAIPDYWGQGTLVTVSS VL: DIQMTQSPSTLSASVGDRVTITCRASQSISRWLAWYQLKPGKAPKLLIYKASSLESGVPSRFSGSGSGTDFTLTISSLQPDDFATYYCQQYNTYSYTFGQGTKLEIK | 90.9 | 94.9 | 26.9 | 25.4 | ≤ 1.7 | 0.43 | 0.48 | 2 | 3.7 | ≤ 0.2 | 4.7 | 99.2 | 99 | 7 | 8.2 | 81.1 | 18 | 98.2 | 2.39 |
| H4H12177P2 (antibody, human IgG4, V domains shown, H4H: human IgG4 Fc with S108P hinge mutation) VH: EVQLVESGGGVVQRGESLRLSCSASDFIFKDYAMYWVRQIPGKGLEWISLISGDGDTTWYGDSVKGRFTISRDNNENSLFLQMNDLRTEDTAMYYCARDMGWNFFQLQYWGQGTLVTVSS VL: not shown | 8.8 | 80.6 | 101 | 180 | 3.7 | 1.6 | 2.4 | 2.2 | 6.1 | 1.3 | 1.5 | 98.1 | 94.9 | 8.8 | 17.1 | 71 | 17 | 97.5 | 2.34 |
